The data set can be described thus: soluble on expression in E. coli; label from the status in PepcDB or PDB records.
Take “MDEDTRLSRYLYLTDREHINVDSIKQLCKISDPNACYRCGCTALHEYFYNYRSVNGKYKYRYNGYYQYYSSSDYENYNEYYYDDYDRTGMNSESDNISIKTEYENEYEFYDETQDQSTQLVDYDIKLKTNEDDFVDEFYGYDRSVGVHDYIDVSINKVVYGRESHVRWRDIWQEHNDGVYSIGKECIDNIYEDRHTVDEFYKIDSVSDVDDAEHISQITNDVSTQTWEKKSELDRYMEMYPRHRYGKHSVFKGFSDKVRKNDLDMNVVKELLSNGASLTIKDSSNKDPIAVYFRRTIMNLEMIDIINKHTTIYERRYIVHSYLKNYRNFDYPFFRKLVLTNKHCLNNYYNISDSKYGTPLHILASNKKIITPNYMKLLVYNGNDINARGEDTQMRTPLHKYLCKFVYHNIEYGIRYYNEKIIDAFIELGADLTIPNDDGMIPVVYCIHSNAEYGYNNITNIKIIRKLLNLSRHASHNLFRDRVMHDYISNTYIDLECLDIIRSLDGYDINCYFEGRTPLHCAIQYNFTQIAEYLLDRGADISLKTDDGKTVFDLSLCSYIPLKWTSFLISRLPPKSVICSLTNHIIDYVLTNNRRIIWQSQMINKYVLLLDPSFYYRFRNAIENKLDQYNNRYNMFEHDRDVNEKYGKVLHDLDTYIKDVQVLKSTSITNNITLYDTIINNKSEFPIRRANDKQLINLIKSNTYHNLIEKVIKNTLEKYTLTNIVLEYMISSQSQSQSSYLSRIPNEILLEILYKLDMYDLRNLYTRYMRENDITEYHIENTRSVSTQT”: the “soluble on expression in E. coli” value was “not soluble”.

On to “MGSDKIHHHHHHMASYHLNAKMAQDIVSRTMQIIDSNINVMDARGKIIGSGDQERLGELHEGALLALSQGRVVDIDDAVARHLHGVRPGINLPLRIDGEIVGVIGLTGNPSQLRQYGELVCMTAEMMLEQARLLHMLAQDSRLREELVLNLVRTDDLSPALMEWAQRLGIDMNKPRVAAVIEVDSGQLGVDSAMAELQQLQTLLTTPERDNLIAIVSLTEMVVLKPALNSHGRWDAEEHRRRVDTLMSRMAESSRLRVRLALGNYFAGPGSIARSYRTARTTMSVGKQRMPAQRCYYYQDLMLPVLLDSLRGGWQANELVRPLSKLKAMDGNGLLRRTLGAWFRNNVQPGATAKALFIHRNTLEYRLNRISELTGLDLGNFDDRLLLYVALQLDEEE”, for which the “soluble on expression in E. coli” value is recorded as “not soluble”.

Turning to “MAHHHHHHMIEETSFSNLKWEHDLFSIGDLHGDMDAFLKILLNEKMIDKNYNVIRENVLIVITGDVLDPSYDDINILFFIEEYNEKGKALNSKILMVLGNHEVKNMCLEFNKVKKNVEKYQNRNDMFPKNEVIYNILVNKPFVLRVNEMVFSHAGVLPFYASYGIDYINKEGKNEIENNCKLLFNKRKRKEEFCIACDYGPTLNRYFSFVNDGVFKKWMVCSTLNKSLNLLSSRRMIVGHTVQKNKKINSFCDDKLLLTDTGISKWKNGVVSYVQYFKDGTFDVRYL”, the “soluble on expression in E. coli” value is “not soluble”.

For the sequence “MSLTTFLFRNGALLDPDHPDLLQGFEILIEDGFIREVSDKPIKSSNAHVIDVKGKTIMPGLIDLHVHVVAIEFNLPRVATLPNVLVTLRAVPIMRAMLRRGFTTVRDAGGAGYPFKQAVESGLVEGPRLFVSGRALSQTGGHADPRARSDYMPPDSPCGCCVRVGALGRVADGVDEVRRAVREELQMGADQIKIMASGGVASPTDPVGVFGYSEDEIRAIVAEAQGRGTYVLAHAYTPAAIARAVRCGVRTIEHGNLIDDETARLVAEHGAYVVPTLVTYDALASEGEKYGLPPESIAKIADVHGAGLHSIEIMKRAGVKMGFGTDLLGEAQRLQSDEFRILAEVLSPAEVIASATIVSAEVLGMQDKLGRIVPGAHADVLVVDGNPLKSVDCLLGQGEHIPLVMKDGRLFVNELEGHEGHHHHHH”, the “soluble on expression in E. coli” value is on record as “soluble”.

For “MAHHHHHHMLRFRVRLPKGKEPVSMDLDGTTTWGSFVQSISSLTDVPCSQLRILSGFPPRPVEVGDGAASIASVLPGGGNVIVQVGEADVVKGKTEGRYVPPVDGKWHFVRRVCPSDNSCLFHAAAYVLRNKSRVDGPSLRKECADIVQAYPNVFNEKTILDRPNREYVDFIRNPNAWGGAIELMVLSFLTQTEIVALDLTSSNVLHFGEDNNYTVRAYVVFNGQHYDAIAMNPMFNSPQESEDQVLFSSTDAEVLNRARRFVADEAKKLRLR”, the “soluble on expression in E. coli” value is “soluble”.

With “STQVSQATSQPINFQVQKDGSSEKSHMDDYMQHPGKVIKQNNKYYFQTVLNNASFWKEYKFYNANNQELATTVVNDNKKADTRTINVAVEPGYKSLTTKVHIVVPQINYNHRYTTHLEFEKAIPTLADAAK”, the “soluble on expression in E. coli” value was “not soluble”.

Regarding “MVKRRNLLHFNNGARSERDLGDLVTKVFEKAAKKEPQPLYTFSLPLLSVQDEIRVYCKKKNIKIGYDTLFMEITFSADREAVDELIKHFFTENKLYLRGRFYLSAAVV”, the “soluble on expression in E. coli” value was “not soluble”.

As for “MPELPEVETTRRRLRPLVLGQTLRQVVHRDPARYRNTALAEGRRILEVDRRGKFLLFALEGGVELVAHLGMTGGFRLEPTPHTRAALVLEGRTLYFHDPRRFGRLFGVRRGDYREIPLLLRLGPEPLSEAFAFPGFFRGLKESARPLKALLLDQRLAAGVGNIYADEALFRARLSPFRPARSLTEEEARRLYRALREVLAEAVELGGSTLSDQSYRQPDGLPGGFQTRHAVYGREGLPCPACGRPVERRVVAGRGTHFCPTCQGEGP”, the “soluble on expression in E. coli” value is “soluble”.

For the sequence “MGSDKIHHHHHHMTKSDLLFDKFNDKHGKFLVFFGTFVDTPKLGELRIREKTSVGVLNGIIRFVNRNSLDPVKDCLDHDSSLSPEDVTVVDIIGKDKTRNNSFYFPGFVDTHNHVSQYPNVGVFGNSTLLDWLEKYTFPIEAALANENIAREVYNKVISKTLSHGTTTVAYYNTIDLKSTKLLAQLSSLLGQRVLVGKVCMDTNGPEYYIEDTKTSFESTVKVVKYIRETICDPLVNPIVTPRFAPSCSRELMQQLSKLVKDENIHVQTHLSENKEEIQWVQDLFPECESYTDVYDKYGLLTEKTVLAHCIHLTDAEARVIKQRRCGISHCPISNSSLTSGECRVRWLLDQGIKVGLGTDVSAGHSCSILTTGRQAFAVSRHLAMRETDHAKLSVSECLFLATMGGAQVLRMDETLGTFDVGKQFDAQMIDTNAPGSNVDMFHWQLKEKDQMQEQEQEQGQDPYKNPPLLTNEDIIAKWFFNGDDRNTTKVWVAGQQVYQI”, the “soluble on expression in E. coli” value is on record as “not soluble”.

Values taken from the DeepSol protein solubility set.
